From article PMC10759225

Biological target: TAX peptide, a peptide of the human T-cell leukemia virus type I peptide on HLA-A2 (human)
Assay: data from Cole et al. (2013); the method is not told in this article; the reference is the unmutated A6-TCR

For “A6-TCR with mutated CDR3 beta loop (PDB 4FTV)”, the fold enhancement of binding over the parent A6-TCR was 1000 fold.
